# Test results: the supplement of paper PMC12764529
# ± gives the half width of the 95% confidence interval.
# Test: folding stability dG unfold from trypsin proteolysis; higher = more stable
# In short: (§1)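 Unfolding free energy was derived, per protease or combined, by relating Bayesian-fitted K50 values from sequencing counts to a sequence-predicted unfolded-state K50 and a shared folded-state K50. The underlying digests exposed cysteine-free mini-proteins under 80 residues, in a PA-tagged cDNA display construct, to trypsin and chymotrypsin at 11 threefold-diluted concentrations and to a no-protease condition. A filter kept only designs with AlphaFold2 dimer inter-PAE above 15.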
row,Sequence,folding stability dG unfold [kcal/mol]
1,SAGGSATITIEVNGKPITIEFDKKNKTYTITLPNGKKVEVKVVDGELYITFANGEKRKISLKELKPSAGGSA [r15_448_TrROS_Hall],2.68 ± 0.12
2,SAGMKIEVKKKKDGKLEVEIEVKTKDGRTIRVKIYYDKKTKKFYIVEIEAESEEEKKKAEELLKKLLKSSAG [r5_266_TrROS_Hall],2.83 ± 0.14
3,SAGMMPLSHPEAREKAIEFAKKGYLVYVIEFENGESQVIVLESEEEIEELIKELPKPIKKIYVIPPLPESAG [r5_481_TrMRF],2.11 ± 0.054
4,SAGGSAGGSAGGGSVSGSTPLTLPDSPVTRYSYPDSLVTFVPEKGVVITVSGSSTTVALSAGGSAGGSAGGS [r10_559_JUSTAS],0.825 ± 0.03
5,SAGGSAGGSAKIRVGGEEIELPPGKPVMFRFPENGYMIKITIKPDPKENKWKIDELKVYPMDSAGGSAGGSA [r18_222_TrROS],1.13 ± 0.089
6,SAGGGSMVFVEFPQGGKTVRVDVDLEKGVLRVRFPGEGAVLEYPVRDPEAVVRELTPADVPVRAYPESAGGS [r8_95_JUSTAS],0.346 ± 0.078
7,SAGGDTFLMLHPHPVKDNGKDKPYYHIMVMKITEVEPDNGKPRLKMEMKMIHIPADDPDALKEAGIPISAGG [r13_670_TrROS],1.81 ± 0.1
8,SAGKKKKKPKVKEVIIVVKVENMTAEEIAKKLAEELNVEVTKVEVKDGYVTITLKDGSKIKIEVIPEEKSAG [r5_350_TrROS_Hall],1.35 ± 0.11
9,SAGGSAGGSAGEPKIIPIKLPENAKVEEFENPDGYPIKIFENPDNGEIWIVWPDGKIWPISAGGSAGGSAGG [r11_601_TrROS],1.19 ± 0.051
10,SAGGSAGGSSLEEIKAAAEEAVAAGHPVLTVTSGSGKVVTVEVGESPIESAGPLDGVTVTLTGSAGGSAGGS [r20_44_JUSTAS],1.02 ± 0.056
11,SASSSTTTSSGTLEEVLQQVEDYLKANPNTLVTIAPPDGTTTTVDLSYSPSIAVNGDPSGLTTVTITNSSAG [r14_807_JUSTAS],1.57 ± 0.057
12,SAGGSKPIRVEIAVPPDVPLEELARRVEEELRELGFEVEVEEVSFLPEEGRVLLRFRDGAVAVIPNSAGGSA [r2_242_TrMRF],1.8 ± 0.022
13,SAGGKIRIDVQYNKNEGYITIRIRFNGNTREIPIPSPKQSPEDVREEAEEIAKYLQEEYNIKEVEIWSAGGS [r16_249_TrROS],2 ± 0.068
14,SAGMEVEYTLTFELPGGLALRVTAKVRFNPETNELEVLELKVELLPLPPAPPPFISPEEAEKNGLLPEESAG [r5_393_TrMRF],3.81 ± 0.28
15,SAGGPNKPIKIKIMIWRDPGGWYIAIRIPDGNTRMFKSPEQIKSILEKFPGLKIDEIEIIPPDQMKKLSAGG [r13_730_TrROS],1.7 ± 0.025
16,SAGGSAGGSSIEEEYAANPENVTVTLPSPGGTPASTITVGNAPVTVTPLPDGDSAVTLDPANKSAGGSAGGS [r12_805_JUSTAS],0.727 ± 0.045
17,SMKVEKLEDGTYIIVNEDGSITEIKVYPDKVEVKTYPVLYKMPDGRWFETKEEAEKFEEETGVPILEEDLSA [r9_660_TrMRF],0.787 ± 0.11
18,SAGGSAGGSTITFFFDNPEQIEKLIEELMDKNNVEVEVEPHPDNGMPMVTFTNPNNGKEITIMSAGGSAGGS [r12_635_TrROS],0.48 ± 0.057
19,SAGGKKKITIEVEKKEDGKEVKVKIKVDGKEIEITFPENMSKEELLEAAKKLAEENNIEIEEVEIYPSAGGS [r16_753_TrROS_Hall],1.24 ± 0.1
20,SAGRITIDPEDWRIEVKPPNGKKREISPDKIQELLREQKQKGKPPTAEEIAEKIMDEFPGYEVEIHPRSAGG [r19_46_TrROS],0.894 ± 0.1

# Test: folding stability dG unfold from chymotrypsin proteolysis; higher = more stable
# In short: as §1
row,Sequence,folding stability dG unfold [kcal/mol]
1,SAGGSATITIEVNGKPITIEFDKKNKTYTITLPNGKKVEVKVVDGELYITFANGEKRKISLKELKPSAGGSA [r15_448_TrROS_Hall],4.34 ± 0.15
2,SAGMKIEVKKKKDGKLEVEIEVKTKDGRTIRVKIYYDKKTKKFYIVEIEAESEEEKKKAEELLKKLLKSSAG [r5_266_TrROS_Hall],3.62 ± 0.045
3,SAGMMPLSHPEAREKAIEFAKKGYLVYVIEFENGESQVIVLESEEEIEELIKELPKPIKKIYVIPPLPESAG [r5_481_TrMRF],3.054 ± 0.017
4,SAGGSAGGSAGGGSVSGSTPLTLPDSPVTRYSYPDSLVTFVPEKGVVITVSGSSTTVALSAGGSAGGSAGGS [r10_559_JUSTAS],0.44 ± 0.077
5,SAGGSAGGSAKIRVGGEEIELPPGKPVMFRFPENGYMIKITIKPDPKENKWKIDELKVYPMDSAGGSAGGSA [r18_222_TrROS],1.83 ± 0.16
6,SAGGGSMVFVEFPQGGKTVRVDVDLEKGVLRVRFPGEGAVLEYPVRDPEAVVRELTPADVPVRAYPESAGGS [r8_95_JUSTAS],0.405 ± 0.11
7,SAGGDTFLMLHPHPVKDNGKDKPYYHIMVMKITEVEPDNGKPRLKMEMKMIHIPADDPDALKEAGIPISAGG [r13_670_TrROS],1.52 ± 0.21
8,SAGKKKKKPKVKEVIIVVKVENMTAEEIAKKLAEELNVEVTKVEVKDGYVTITLKDGSKIKIEVIPEEKSAG [r5_350_TrROS_Hall],1.76 ± 0.069
9,SAGGSAGGSAGEPKIIPIKLPENAKVEEFENPDGYPIKIFENPDNGEIWIVWPDGKIWPISAGGSAGGSAGG [r11_601_TrROS],0.719 ± 0.056
10,SAGGSAGGSSLEEIKAAAEEAVAAGHPVLTVTSGSGKVVTVEVGESPIESAGPLDGVTVTLTGSAGGSAGGS [r20_44_JUSTAS],0.443 ± 0.038
